“And” between values parts separate entries of the source, which are not always exact repeats. Identical values can stand only once.
Columns and labels:
[1] = biological target: gD-tagged wild-type ErbB2 (human) (UniProt P04626); experiment: cell-based or functional assay
endogenous EGFR = biological target: T1, endogenous EGFR (human, UniProt P00533 25-1210); experiment: GST pull-down from HBMEC lysates
T1 construct: whole, on cells; Endogenous receptor of HBMECs, from lysates; also called endogenous EGF receptors
Description: (§1) Clarified lysates were incubated with GST fusion proteins (20-30 mg) bound to glutathione-Sepharose beads for 2 h at 4° C. Beads were washed three times with lysis buffer, and bound proteins were eluted in Laemmli sample buffer and separated by SDS-PAGE for analysis by western blotting.

[2] = biological target: T2, gD-tagged wild-type ErbB2 (human, UniProt P04626 23-1255); experiment: GST pull-down from HBMEC lysates, anti-gD western blot
T2 construct: whole, on cells; Expressed in HBMECs (human endothelial cells); also called gD-ErbB2-WT; gD-ErbB2 WT
Description: as §1

Row | binding result (endogenous EGFR) | binding result [2] | Molecule | ErbB2-induced cell proliferation of HBMECs [1]
1 |  |  | VSV-g-tagged ezrin FERM domain (from UniProt P15311 1-295) | 85 % reduction and 70 % reduction
2 | no binding | no binding | GST fused with the carboxy-terminal domain of ezrin (other, also called GST-Ezrin-CT; C-terminus of ezrin; not shown: glutathione S-transferase (GST) tag) REEKHQKQLERQQLETEKKRRETVEREKEQMMREKEELMLRLQDYEEKTKKAERELSEQIQRALQLEEERKRAQEEAERLEADRMAALRAKEELERQAVDQIKSQEQLAAELAEYTAKIALLEEARRRKEDEVEEWQHRAKEAQDDLVKTKEELHLVMTAPPPPPPPVYEPVSYHVQESLQDEGAEPTGYSAELSSEGIRDDRNEEKRITEAEKNERVQRQLLTLSSELSQARDENKRTHNDIIHNENMRQGRDKYKTLRQIRQGNTKQRIDEFEAL | 
